Experimental data taken from patent publication US11827690B2, “ApoC-II mimetic peptides” (THE UNITED STATES OF AMERICA, as represented by the …, priority 2017, dated 2023).
Non-standard residues stand in square brackets, D forms with d. No end group written: not given here. *: point of attachment. Stearoyl = CCCCCCCCCCCCCCCCCC(=O)*; Nle = CCCC[C@H](N)C(=O)O

Assays:
apoC-II knockout mice = assay: plasma lipids of apoC-II knockout mice after peptide injection; assay type: in vivo
Method: (§1) C57Bl/6 mice (wild-type), apoC-II knockout (apoC-II KO) mice, and apoC-III transgenic mice were used for in vivo study. The C57Bl/6 mice (wild-type) were purchased from Taconic Biosciences Inc. The apoC-II KO mice were created as described in Sakurai et al., J Pharmacol Exp Ther 356:341-353, 2016. The apoC-III transgenic mice were generated by overexpressing human apoC-III in C57Bl/6 mice. See Qu et al., J. Lipid Res. 48:1476-1487, 2007.
Mice were fasted overnight (approximately 12 hours) before the study and 6 hours during the study, the next day. The apoC-II mimetic peptides were synthetically produced and free of biological contamination (not available as FDA approved compounds/treatment). […] W.) administered either subcutaneous injection (S.Q. or S.C.), intraperitoneal injection (I.P.) or intravenous injection (I.V.) (in a sterile, pharmaceutical grade PBS solution at a volume ≤200 μL) as described in Sakurai et al., J Pharmacol Exp Ther 356:341-353, 2016.

bovine LPL [1] = biological target: T1, bovine LPL (Bos taurus, UniProt P11151); assay: in vitro LPL assay using apoC-II deficient patient sera as substrate; assay type: biochemical; details: for promoting TG hydrolysis in the presence of LPL / efficiency compared with native apoC-II protein: FIG. 6; for efficiency compared with native apoC-II protein: at lower concentrations; for TG hydrolysis: concentrations from 100 pM to 10 μM, FIG. 12; for TG clearance ability compared with Delta4: FIG. 10
T1 sequence (P11151 29-478): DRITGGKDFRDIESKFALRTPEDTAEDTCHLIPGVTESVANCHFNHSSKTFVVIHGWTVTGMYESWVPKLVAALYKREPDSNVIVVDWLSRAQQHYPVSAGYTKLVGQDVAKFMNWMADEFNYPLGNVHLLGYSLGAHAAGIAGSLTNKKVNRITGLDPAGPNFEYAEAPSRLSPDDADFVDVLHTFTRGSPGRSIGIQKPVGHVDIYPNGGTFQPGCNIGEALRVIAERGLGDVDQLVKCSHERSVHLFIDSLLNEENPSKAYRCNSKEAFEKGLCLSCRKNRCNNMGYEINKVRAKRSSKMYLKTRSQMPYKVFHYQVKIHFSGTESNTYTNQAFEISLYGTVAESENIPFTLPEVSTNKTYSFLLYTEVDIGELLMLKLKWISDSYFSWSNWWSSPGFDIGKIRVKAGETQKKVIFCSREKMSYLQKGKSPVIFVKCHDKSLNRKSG
Method: (§2) Preparation of LPL: frozen stock of 10 μL of 0.5 mg/mL bovine LPL was used and diluted 1:100 (10 μL+990 μL of PBS).
(§3) Preparation of 20% Intralipid: 2000 mg/dL TG Intralipid was used to prepare 3 mg/dL TG Intralipid by diluting 1.5 μL of the stock with 998.5 μL PBS, or by diluting the stock 1:10 first and then mixing 15 μL of the diluted stock with 985 μL PBS. When apoC-II deficient human serum was used as a substrate, a frozen 10 μL aliquot of 1711 mg/dL (TG) was diluted by adding 990 μL PBS (1:100 dilution).
(§4) Preparation of free fatty acid (NEFA) assay: NEFA reagents were purchased from Wako Diagnostics, Wako Life Sciences, Inc. Reagent A was prepared by mixing Coloring Reagent A with Solvent A (225 μL per well). Reagent B was prepared by mixing Coloring Reagent B with Solvent B (75 μL per well). 5 nmoL oleic acid standard was prepared by diluting 20 μL of 1 mM oleic acid stock (WAKO NEFA standard solution) with 180 μL of 0.2% BSA.
(§5) LPL activity assay: 10 μL of Intralipid, human plasma sample, or mouse plasma sample was added in each well using repeater pipette. 10 μL (or 15 μL in the wells with no LPL control) of PBS and 10 μL of 1% BSA was added in each well using repeater pipette. 10 μL of peptides were added to corresponding wells in vertical triplicates (lowest concentration is on a left, highest is on the right). The plate was spun down at 1000 RPM for 10 seconds to mix and to remove the solutions from the wall of each well. The plate was put on ice and 5 μL of LPL was added using repeater pipette. The plate was spun down again at 1000 RPM for 10 seconds. The plate was covered and put back on ice for an incubation of 30 min. The plate was then moved to 37° C. and incubated for 1 hour.
(§6) Free fatty acids (NEFA) assay: 45 μL of 5 nmoL standard and 0 nmoL control (0.2% BSA) were added to corresponding wells. 225 μL of reagent A was added in each well using the reagent tray and 12-channel pipette. The plate was incubated for 10 min before 75 μL of reagent B was added to each well using the reagent tray and 12-channel pipette. The plate was not covered due to the high volume. The absorbance at 550 nm and 660 nm was measured.

C57BL/6 mice (wild-type) = assay: post-prandial serum TG in C57BL/6 mice after oral gavage with vegetable oil; assay type: in vivo; details: intraperitoneally injected 30 min before gavage, FIG. 20
Method: as §1
Mice were fasted overnight (approximately 12 hours) before the study and 6 hours during the study, the next day. The apoC-II mimetic peptides were synthetically produced and free of biological contamination (not available as FDA approved compounds/treatment). Peptides were produced and used in sterile conditions and filtered by 0.2 nm filter before injections in a single dose 1-10 μmol/kg body weight (B. W.) administered either subcutaneous injection (S.Q. or S.C.), intraperitoneal injection (I.P.) or intravenous injection (I.V.) (in a sterile, pharmaceutical grade PBS solution at a volume ≤200 μL) as described in Sakurai et al., J Pharmacol Exp Ther 356:341-353, 2016.
(§7) In some experiments, each animal received 20% Intralipid (FDA approved, Fresenius Kabi, Uppsala, Sweden) in a single dose either by oral gavage (using special sterile single-use non-toxic animal feeding needles) in a dose 10-20 μL/gram body weight (B.W.) (Tuzcu et al. Drug Chem Toxicol 37: 261-267, 2014; Kusminski et al. Nature Medicine 18: 1539-1549, 2012), or by intraperitoneal injection in a single bolus of 0.1-1.0 mL (Mahadero et al. American J Surgery 164: 45-50, 1992), or by intragastric administration of a dietetic commercially-available liquid oil (food grade vegetable, corn, soy or olive oil) in a single dose 10-20 μL/gram body weight. These oils were a source of TG—when absorbed TG tends to be broken down within 3 h (peak in 30 min) (Kritchevsky Nutritional Biochemistry 6:172-178, 1995). Blood samples (20-30 μL) were obtained from the retro-orbital plexus at time points: −1 h, 0 h, 1 h, 3 h, 6 h and 24 h for measurements of lipids. Mice were returned to metabolic cages after the 6 h time point where the food was put back. Once the study was completed (after 24 hours from the fat administration), mice were euthanized and organs collected.

bovine LPL [2] = biological target: T1, bovine LPL; assay: in vitro LPL assay using Intralipid as substrate; assay type: biochemical; details: concentrations of between about 1 nM to about 10 μM, FIG. 7
Method: as §2, §3, §4
LPL activity assay: 10 μL of Intralipid, human plasma sample, or mouse plasma sample was added in each well using repeater pipette. 10 μL (or 15 μL in the wells with no LPL control) of PBS and 10 μL of 1% BSA was added in each well using repeater pipette. […]
Free fatty acids (NEFA) assay: 45 μL of 5 nmoL standard and 0 nmoL control (0.2% BSA) were added to corresponding wells. […] The absorbance at 550 nm and 660 nm was measured.

bovine LPL [3] = biological target: T1, bovine LPL; assay: in vitro LPL assay using hypertriglyceridemia patient sera as substrate; assay type: biochemical; details: sera of patients with high levels of apoC-III protein, FIG. 27
Method: as §2, §4, §5, §6

wild-type mice = assay: serum TG of wild-type mice after Intralipid injection with or without LPL inhibitor Triton WR1339; assay type: in vivo; details: co-injection with Intralipid, 6 h time point
Method: as §7
The ability of apolipoprotein mimetic peptides to normalize hypertriglyceridemia in mice treated with an LPL inhibitor, Tyloxapol, in presence of high TG provided by 20% Intralipid, was assessed.
Mice were fasted overnight (approximately 12 hours) before the study and 6 hours during the study, the next day. The apo mimetic peptides were synthetically produced and free of biological contamination (not available as FDA approved compounds/treatment). Peptides were produced and used in sterile conditions and filtered by 0.2 nm filter before injections in a single dose 1-5 μmol/kg B.W. either S.C. or I.P. or I.V. (in a sterile, pharmaceutical grade PBS solution at a volume ≤200 μL). Next, 10% Tyloxapol (Triton WR-1339, T-0307, Sigma-Aldrich) was injected I.V. in a single dose of 5 μL/gram B.W., as described earlier (Zhang Y. L. et al., J Biol Chem. 279: 19362-19374, 2004; Abe C. et al., J. Nutr. 137: 345-350, 2007). […] Finally, each animal received 20% Intralipid (FDA approved, Fresenius Kabi, Uppsala, Sweden) in a single dose either by oral gavage (using special sterile single-use non-toxic animal feeding needles)—in a dose 10-20 μL/gram B.W. (Tuzcu K. et al., Drug Chem Toxicol., 37: 261-267, 2014, Kusminski C. et al., Nature Medicine. 18: 1539-1549, 2012), or by intraperitoneal injection—in a single bolus of 0.1-1.0 mL (Mahadero G. et al., American J Surgery. 164: 45-50, 1992). Blood samples (20-30 μL) were obtained from the retro-orbital plexus at time points: −1 h, 0 h, 1 h, 3 h, 6 h and 24 h for measurements of lipids. Mice were returned to metabolic cages after the 6 h time point where the food was put back. Once the study was completed (after 24 hours from the Intralipid administration), mice were euthanized and organs collected.

[4] = biological target: T2, LPL inhibited by apoC-III (Bos taurus, UniProt P11151); assay: LPL activation assay with high TG human plasma as substrate and recombinant apoC-III as an inhibitor; assay type: biochemical; details: 50 μM apoC-III added; from about 3.2 μM without; plasma 1:50 dilution
T2 sequence (P11151 29-478): T1 sequence (P11151 29-478)
Method: as §5, §6
(§8) LPL assay was performed using Intralipid, high TG human plasma (1:50 dilution), or apoC-III transgenic mouse plasma (1:50 dilution). When Intralipid was used as a substrate, 25 or 50 μM recombinant ApoC-III was added as an inhibitor. When the high TG human plasma was used as a substrate, 25 or 50 μM recombinant ApoC-III was added as an inhibitor with or without pre-incubation at 37° C. for 1 hour. An apoC-II mimetic peptide was added at various concentrations.

[5] = biological target: T2, LPL inhibited by apoC-III; assay: LPL assay using human apoC-II deficient plasma as substrate with recombinant apoC-III; assay type: biochemical; details: 25 μM apoC-III added; from about 1.5 μM without
Method: as §5, §6, §8

[6] = biological target: T2, LPL inhibited by apoC-III; assay: LPL activation assay with Intralipid as substrate and recombinant apoC-III as an inhibitor; assay type: biochemical; details: Intralipid substrate, FIG. 31
Method: as §5, §6, §8

| Substance | promoting TG hydrolysis in the presence of LPL (bovine LPL [1]) | efficiency compared with native apoC-II protein (bovine LPL [1]) | TG hydrolysis (bovine LPL [1]) | serum TG increase after vegetable oil gavage (C57BL/6 mice (wild-type)) | efficiency compared with native apoC-II protein (bovine LPL [2]) | TG clearance ability compared with Delta4 (bovine LPL [1]) | other results |
| --- | --- | --- | --- | --- | --- | --- | --- |
| DYLKAVFEKLRDLYSKFTAAnLSTYTGIFTDQVLSVLKGEE (DYLKAVFEKLRDLYSKFTAA[Nle]STYTGIFTDQVLSVLKGEE) [Delta4] | capable of promoting TG hydrolysis in the presence of LPL | worked more efficiently than the native apoC-II protein | promoted TG hydrolysis in a dose-dependent manner | the TG increase was significantly reduced | worked more efficiently than the native apoC-II protein |  | plasma TG (apoC-II knockout mice; intraperitoneal injection): marked reduction of plasma TG; total cholesterol level (apoC-II knockout mice; intraperitoneal injection): decrease in total cholesterol level; time of maximum decrease of plasma TG (apoC-II knockout mice; intraperitoneal injection, FIG. 18): about 3 hours; plasma TG (apoC-II knockout mice; subcutaneous injection): rapid and marked reduction of plasma TG; total cholesterol level (apoC-II knockout mice; subcutaneous injection): decrease in total cholesterol level; LPL activity (bovine LPL [3]): increased the LPL activity |
| DYLKAVFEKLRDLYSKFTPAMSTYTGIFTDQVLSVLKGEE [Delta4b] |  |  | promoted TG hydrolysis in a dose-dependent manner | the TG increase was significantly reduced |  | enhanced the TG clearance ability of the exemplary apoC-II mimetic peptide Delta4 |  |
| DYLKAVFEKLRDLYSKKC18TPAMSTYTGIFTDQVLSVLKGEE (DYLKAVFEKLRDLYSKK(Stearoyl)TPAMSTYTGIFTDQVLSVLKGEE) [Delta4b-3] |  |  | promoted TG hydrolysis in a dose-dependent manner | the TG increase was significantly reduced |  | enhanced the TG clearance ability of the exemplary apoC-II mimetic peptide Delta4 |  |
| DYLKEVFEKLRDLYSKFTAAnLSTYTGIFTDQVLSVLKGEE (DYLKEVFEKLRDLYSKFTAA[Nle]STYTGIFTDQVLSVLKGEE) [Delta5] | capable of promoting TG hydrolysis in the presence of LPL | worked more efficiently than the native apoC-II protein |  |  | worked more efficiently than the native apoC-II protein |  |  |
| Tyloxapol [Triton, reference compound] |  |  |  |  |  |  | increase of serum TG level (wild-type mice): more than 1000 fold |
| apoC-III recombinant protein: recombinant ApoC-III added as an inhibitor in the LPL assay |  |  |  |  |  |  | free fatty acid (NEFA) production [4]: about 1.7 μM; free fatty acid (NEFA) production [5]: about 0.8 μM; effect on production of free fatty acid (NEFA) [6]: inhibited the production of free fatty acid (NEFA) |
